Measured values as given in article PMC8673666 (PLoS Pathogens, 2021).

Tests used:
[1] = target: human integrin αvβ8 on M000216 melanoma cells (human (endogenous in M000216)) (UniProt P06756); experiment: flow cytometry on cells
[2] = target: mouse integrin αvβ8 on B16-mβ8 cells (mouse (endogenous in B16) | mouse) (UniProt P43406); experiment: flow cytometry on cells
[3] = target: recombinant soluble fiber knob of mouse adenovirus 3 (FK-M3) (mouse adenovirus 3 (MAdV-3)); experiment: SEC-MALS
[4] = target: mouse integrin αvβ6 on B16-mβ6 cells (mouse (endogenous in B16) | mouse) (UniProt P43406); experiment: flow cytometry on cells
[5] = target: mouse integrin αvβ6 on CMT-93 cells (mouse (endogenous in CMT-93)) (UniProt P43406); experiment: flow cytometry on cells
[6] = target: biotinylated fiber knob of mouse adenovirus 3 (FKb-M3) (mouse adenovirus 3 (MAdV-3)); experiment: SPR; […], single cycle; Biacore T200, 20°C; […] (CaCl2, MgCl2, […]; 1:1 kinetic model
[7] = target: the molecule itself; experiment: SEC-MALS
[8] = target: T1, soluble mouse integrin αvβ6 (sITG mαvβ6) (mouse, UniProt P43406;Q9Z0T9); experiment: SPR; […], single cycle; Biacore T200, 20°C; […] (CaCl2, MgCl2, […]; 1:1 kinetic model; conditions: both partners purified
T1 construct: also called mouse sITG αvβ6; source: bought: R&D Systems, expressed in and secreted from CHO cells
T1 sequence (P43406 31-988, chain 1 of 2): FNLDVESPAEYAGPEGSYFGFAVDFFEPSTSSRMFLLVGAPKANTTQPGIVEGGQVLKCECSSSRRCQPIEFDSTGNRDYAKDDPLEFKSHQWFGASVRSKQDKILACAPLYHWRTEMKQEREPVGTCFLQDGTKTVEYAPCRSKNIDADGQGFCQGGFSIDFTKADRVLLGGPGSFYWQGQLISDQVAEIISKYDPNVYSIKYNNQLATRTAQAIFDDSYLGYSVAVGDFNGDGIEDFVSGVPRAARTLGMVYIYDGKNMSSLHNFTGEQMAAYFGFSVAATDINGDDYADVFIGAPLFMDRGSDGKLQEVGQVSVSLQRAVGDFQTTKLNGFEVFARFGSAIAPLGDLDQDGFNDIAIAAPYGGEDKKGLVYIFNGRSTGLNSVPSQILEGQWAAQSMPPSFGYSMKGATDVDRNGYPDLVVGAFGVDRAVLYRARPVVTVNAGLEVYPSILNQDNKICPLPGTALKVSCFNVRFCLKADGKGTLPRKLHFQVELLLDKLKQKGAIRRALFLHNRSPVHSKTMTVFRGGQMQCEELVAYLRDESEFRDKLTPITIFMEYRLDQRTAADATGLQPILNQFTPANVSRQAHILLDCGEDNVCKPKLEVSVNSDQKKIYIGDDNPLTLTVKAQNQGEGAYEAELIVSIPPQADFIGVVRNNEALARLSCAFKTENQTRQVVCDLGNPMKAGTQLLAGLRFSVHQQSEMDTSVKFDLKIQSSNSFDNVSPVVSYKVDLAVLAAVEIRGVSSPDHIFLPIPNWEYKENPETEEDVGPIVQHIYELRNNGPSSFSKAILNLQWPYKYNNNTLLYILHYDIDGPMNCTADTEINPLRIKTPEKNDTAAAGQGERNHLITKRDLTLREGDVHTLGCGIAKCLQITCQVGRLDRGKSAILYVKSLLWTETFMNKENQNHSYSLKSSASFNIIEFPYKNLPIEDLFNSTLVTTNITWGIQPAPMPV
T1 sequence (Q9Z0T9 22-708, chain 2 of 2): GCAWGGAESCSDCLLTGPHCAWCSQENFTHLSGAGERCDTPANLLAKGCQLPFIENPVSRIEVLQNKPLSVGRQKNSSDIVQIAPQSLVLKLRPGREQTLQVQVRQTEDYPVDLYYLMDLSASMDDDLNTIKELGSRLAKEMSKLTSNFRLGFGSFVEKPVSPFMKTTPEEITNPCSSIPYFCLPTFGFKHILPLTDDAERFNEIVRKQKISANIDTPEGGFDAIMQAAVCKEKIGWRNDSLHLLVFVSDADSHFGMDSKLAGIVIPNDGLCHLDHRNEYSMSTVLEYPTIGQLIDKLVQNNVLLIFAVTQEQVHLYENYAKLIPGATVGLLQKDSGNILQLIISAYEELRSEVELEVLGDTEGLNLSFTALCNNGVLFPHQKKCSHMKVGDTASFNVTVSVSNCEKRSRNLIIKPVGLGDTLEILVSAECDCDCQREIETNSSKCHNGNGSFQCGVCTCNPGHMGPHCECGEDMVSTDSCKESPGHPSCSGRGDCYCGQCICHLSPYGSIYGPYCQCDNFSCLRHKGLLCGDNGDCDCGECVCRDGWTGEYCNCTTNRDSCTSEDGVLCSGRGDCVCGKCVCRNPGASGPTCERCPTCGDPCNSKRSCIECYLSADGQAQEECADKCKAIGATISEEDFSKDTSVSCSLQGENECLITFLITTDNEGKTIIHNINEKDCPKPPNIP

[9] = target: T2, soluble human integrin αvβ6 (sITG hαvβ6) (human, UniProt P06756;P18564); experiment: as above; conditions: both partners purified
T2 construct: also called human sITG αvβ6
T2 sequence (P06756 31-992, chain 1 of 2): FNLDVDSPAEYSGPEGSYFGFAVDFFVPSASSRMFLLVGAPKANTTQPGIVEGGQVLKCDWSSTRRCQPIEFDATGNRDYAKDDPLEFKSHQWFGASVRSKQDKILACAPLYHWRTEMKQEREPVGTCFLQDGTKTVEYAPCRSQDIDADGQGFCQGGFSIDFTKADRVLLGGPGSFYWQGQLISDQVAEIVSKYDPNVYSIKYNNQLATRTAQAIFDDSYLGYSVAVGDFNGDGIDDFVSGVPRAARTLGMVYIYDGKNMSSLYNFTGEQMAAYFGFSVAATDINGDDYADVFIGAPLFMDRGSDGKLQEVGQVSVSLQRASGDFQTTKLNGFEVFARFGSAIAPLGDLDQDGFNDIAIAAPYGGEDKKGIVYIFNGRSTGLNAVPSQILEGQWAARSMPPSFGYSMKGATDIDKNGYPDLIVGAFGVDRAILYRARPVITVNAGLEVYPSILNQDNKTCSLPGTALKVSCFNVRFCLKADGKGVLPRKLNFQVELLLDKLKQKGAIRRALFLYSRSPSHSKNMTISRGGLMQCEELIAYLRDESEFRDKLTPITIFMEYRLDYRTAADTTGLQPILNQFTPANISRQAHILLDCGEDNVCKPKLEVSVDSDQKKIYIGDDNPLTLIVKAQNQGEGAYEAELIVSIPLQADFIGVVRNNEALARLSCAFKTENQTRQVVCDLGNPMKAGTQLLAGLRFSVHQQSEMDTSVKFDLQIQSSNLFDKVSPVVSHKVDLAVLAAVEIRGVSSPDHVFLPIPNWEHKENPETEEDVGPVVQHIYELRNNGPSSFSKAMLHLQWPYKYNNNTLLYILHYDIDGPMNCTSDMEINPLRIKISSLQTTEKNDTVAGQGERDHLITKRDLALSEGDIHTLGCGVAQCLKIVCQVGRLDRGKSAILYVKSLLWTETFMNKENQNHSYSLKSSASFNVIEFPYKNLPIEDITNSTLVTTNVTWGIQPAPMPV
T2 sequence (P18564 22-709, chain 2 of 2): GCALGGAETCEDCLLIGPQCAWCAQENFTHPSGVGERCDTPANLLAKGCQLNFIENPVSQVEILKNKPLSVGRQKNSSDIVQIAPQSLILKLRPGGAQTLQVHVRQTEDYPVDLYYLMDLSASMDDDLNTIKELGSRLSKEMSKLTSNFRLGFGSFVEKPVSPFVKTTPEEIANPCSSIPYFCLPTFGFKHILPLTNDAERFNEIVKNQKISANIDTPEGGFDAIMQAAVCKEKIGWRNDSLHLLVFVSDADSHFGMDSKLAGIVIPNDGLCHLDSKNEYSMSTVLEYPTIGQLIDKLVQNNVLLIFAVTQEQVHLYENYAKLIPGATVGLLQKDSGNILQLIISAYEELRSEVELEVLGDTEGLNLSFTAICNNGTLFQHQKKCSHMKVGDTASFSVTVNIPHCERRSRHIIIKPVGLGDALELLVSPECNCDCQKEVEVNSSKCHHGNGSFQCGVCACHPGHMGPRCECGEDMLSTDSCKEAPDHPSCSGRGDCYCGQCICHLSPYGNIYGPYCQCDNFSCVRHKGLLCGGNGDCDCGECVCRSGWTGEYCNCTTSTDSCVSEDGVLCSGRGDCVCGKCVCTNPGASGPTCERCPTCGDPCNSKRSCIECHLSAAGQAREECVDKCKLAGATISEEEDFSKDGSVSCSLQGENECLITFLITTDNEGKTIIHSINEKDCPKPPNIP

[10] = target: T3, soluble human integrin αvβ8 (sITG hαvβ8) (human, UniProt P06756;P26012); experiment: as above; conditions: both partners purified
T3 construct: also called human sITG αvβ8

[11] = target: T4, mouse integrin αvβ6 on B16-mβ6 cells (mouse (endogenous in B16) | mouse, UniProt P43406;Q9Z0T9); experiment: flow cytometry on cells; conditions: one partner purified
T4 construct: also called mαvβ6

Chain of human integrin αvβ8 on M000216 melanoma cells (human (endogenous in M000216)) (P06756 31-1048, chain 1 of 2): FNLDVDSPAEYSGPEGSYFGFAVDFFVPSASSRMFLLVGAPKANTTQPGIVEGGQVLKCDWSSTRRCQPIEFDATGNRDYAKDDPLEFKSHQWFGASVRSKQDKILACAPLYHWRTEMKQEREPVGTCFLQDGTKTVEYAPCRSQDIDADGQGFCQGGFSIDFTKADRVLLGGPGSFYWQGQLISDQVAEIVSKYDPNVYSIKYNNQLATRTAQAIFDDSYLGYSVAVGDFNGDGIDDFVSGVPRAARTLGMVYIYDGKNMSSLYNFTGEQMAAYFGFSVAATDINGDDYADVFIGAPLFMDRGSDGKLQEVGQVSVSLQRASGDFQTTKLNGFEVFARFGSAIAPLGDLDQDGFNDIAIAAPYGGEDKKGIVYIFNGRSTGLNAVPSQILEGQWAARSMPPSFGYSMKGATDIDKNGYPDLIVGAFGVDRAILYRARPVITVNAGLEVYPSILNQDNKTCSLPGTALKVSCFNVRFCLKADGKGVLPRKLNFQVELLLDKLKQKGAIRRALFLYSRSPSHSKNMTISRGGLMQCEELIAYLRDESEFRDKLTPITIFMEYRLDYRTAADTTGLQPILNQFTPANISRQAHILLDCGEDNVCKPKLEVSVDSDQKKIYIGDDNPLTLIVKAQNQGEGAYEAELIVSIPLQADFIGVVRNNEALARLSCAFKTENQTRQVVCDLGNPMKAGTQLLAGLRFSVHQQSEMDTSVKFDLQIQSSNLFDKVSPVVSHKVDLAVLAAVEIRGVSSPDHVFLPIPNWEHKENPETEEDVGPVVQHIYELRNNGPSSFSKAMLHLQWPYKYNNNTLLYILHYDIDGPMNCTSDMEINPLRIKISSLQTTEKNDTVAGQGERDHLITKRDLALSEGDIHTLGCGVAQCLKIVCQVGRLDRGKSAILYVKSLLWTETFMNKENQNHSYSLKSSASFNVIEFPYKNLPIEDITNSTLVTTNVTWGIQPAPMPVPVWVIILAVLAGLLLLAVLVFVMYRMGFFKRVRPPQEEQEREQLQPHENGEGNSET
Chain of human integrin αvβ8 on M000216 melanoma cells (human (endogenous in M000216)) (P26012 43-769, chain 2 of 2, further chain): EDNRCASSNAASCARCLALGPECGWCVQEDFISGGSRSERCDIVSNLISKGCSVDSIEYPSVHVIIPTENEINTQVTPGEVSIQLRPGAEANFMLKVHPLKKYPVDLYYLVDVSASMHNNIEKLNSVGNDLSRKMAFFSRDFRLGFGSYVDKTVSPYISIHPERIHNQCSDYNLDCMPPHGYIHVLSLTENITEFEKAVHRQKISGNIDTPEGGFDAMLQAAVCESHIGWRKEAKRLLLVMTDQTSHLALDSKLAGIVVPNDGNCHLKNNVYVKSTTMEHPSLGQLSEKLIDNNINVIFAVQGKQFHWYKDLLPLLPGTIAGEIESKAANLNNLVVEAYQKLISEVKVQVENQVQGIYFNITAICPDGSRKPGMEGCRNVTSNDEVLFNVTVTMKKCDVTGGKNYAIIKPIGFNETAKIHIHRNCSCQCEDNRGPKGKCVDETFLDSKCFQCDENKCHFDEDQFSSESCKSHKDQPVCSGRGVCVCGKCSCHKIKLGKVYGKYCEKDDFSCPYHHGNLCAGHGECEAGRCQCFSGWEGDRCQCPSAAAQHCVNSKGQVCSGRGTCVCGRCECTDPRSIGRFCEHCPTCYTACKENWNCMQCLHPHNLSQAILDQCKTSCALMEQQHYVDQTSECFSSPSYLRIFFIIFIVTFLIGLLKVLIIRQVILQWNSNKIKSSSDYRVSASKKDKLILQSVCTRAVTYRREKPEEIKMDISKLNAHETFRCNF

Molecule: MAdV-1-IX-2A-GFP virus particles (M1-IX-G), bearing the M1 fiber (from UniProt P19721 1-613) (complex)
- fold increase of the binding enhancement in the presence of Mn2+ [1]: 1.5 fold
- fold increase of virus binding, Mg2+/Ca2+ buffer [2]: 1.3 fold

Molecule: MAdV-3-IX-2A-GFP virus particles (M3-IX-G), bearing the M3 fiber (complex)
- fold increase of the binding enhancement in the presence of Mn2+ [1]: 3.4 fold
- fold increase of virus binding, Mg2+/Ca2+ buffer [2]: 1.3 fold
- fold increase of virus binding, Mn2+ buffer [2]: 2.7 fold

Molecule: recombinant soluble fiber knob of mouse adenovirus 3 (FK-M3) (domain or fragment)
- stoichiometry N [3]: 3
- Kd [1]: 1.21 nM
- Kd [4]: 0.068 nM
- Kd [5]: 0.069 nM
- Kd [2]: 1.31 nM

Molecule: soluble human integrin αvβ6 (sITG hαvβ6) (from UniProt P06756;P18564) (receptor)
- Kd [6]: 0.059 nM
- koff [6]: 5.01e-06 s⁻¹
- kon [6]: 85000 M⁻¹ s⁻¹

Molecule: soluble human integrin αvβ8 (sITG hαvβ8) (from UniProt P06756;P26012) (receptor)
- Kd [6]: 1.32 nM
- koff [6]: 0.000965 s⁻¹
- kon [6]: 729000 M⁻¹ s⁻¹

Molecule: soluble mouse integrin αvβ6 (sITG mαvβ6) (from UniProt P43406;Q9Z0T9) (receptor)
- Kd [6]: < 0.01 nM
- koff [6]: 3.12e-08 s⁻¹
- kon [6]: 51300 M⁻¹ s⁻¹

B1: biotinylated fiber knob of mouse adenovirus 1 (FKb-M1) (domain or fragment)
chain: GLPIGNNGTFHTKQDCKIFLSLTRLGPMVHGTFMLQAPQYELTTNGMREITFSFNSTGGLEQPAPVTYWGALDPPPTAKAAEIENQKRVKKRAAPDPPVEPPPKRRGDLAVLFAKVAEQAMELAKEQAVQAQPPEHVNTDWADHMNLLRFMPNTLVYPTAATIAANLQFHDTRLSLRRATLKIRLNGSPDSAYQLGFMLELVGTQSASIVTDTISFWYYAEDY
modifications: biotin (biotinylated by co-expressed protein biotin ligase BirA)
- stoichiometry N [7]: 3
- Kd [8]: 0.25 nM
- koff [8]: 1.66e-05 s⁻¹
- kon [8]: 66400 M⁻¹ s⁻¹
- Kd [9]: 1.58 nM
- koff [9]: 0.000127 s⁻¹
- kon [9]: 80200 M⁻¹ s⁻¹
- Kd [10]: 14.5 nM
- koff [10]: 0.00673 s⁻¹
- kon [10]: 465000 M⁻¹ s⁻¹

B2: recombinant soluble fiber knob of mouse adenovirus 1 (FK-M1) (domain or fragment)
chain: B1 chain
notes: source: pET28a expression, purified (Ni-NTA); not shown: His6, N-terminal, kept
- Kd [11]: 1.27 ± 0.66 nM

B3: biotinylated fiber knob of human adenovirus C5 (FKb-H5) (domain or fragment)
chain: TPAPSPNCRLNAEKDAKLTLVLTKCGSQILATVSVLAVKGSLAPISGTVQSAHLIIRFDENGVLLNNSFLDPEYWNFRNGDLTEGTAYTNAVGFMPNLSAYPKSHGKTAKSNIVSQVYLNGDKTKPVTLTITLNGTQETGDTTPSAYSMSFSWDWSGHNYINEIFATSSYTFSYIAQE
modifications: biotin (biotinylated by co-expressed protein biotin ligase BirA)
- stoichiometry N [7]: 3
